From publication PMC6889386

Biological target: EGFR on A549-derived exosomes (A-Exo) (UniProt P00533)
Assay: flow cytometry
Conditions: MSN-aptamer conjugates incubated with PKH67-labelled exosomes in cell medium or rat blood (37 C, 1-4 h, static or 100 rpm), buffer details not given

Row | Sequence | binding signal (% positive events) (amino-functionalized (terminus not stated), EDC/NHS-conjugated to MSN-COOH nanoparticle) | binding signal (% positive events) (carboxyl-functionalized (terminus not stated), EDC/NHS-conjugated to MSN-NH2 nanoparticle)
1 | TACCAGTGCGATGCTCAGTGCCGTTTCTTCTCTTTCGCTTTTTTTGCTTTTGAGCATGCTGACGCATTCGGTTGAC [anti-EGFR DNA aptamer on negatively charged MSN (MSN-AP-)] | 8.1 | –
2 | TACCAGTGCGATGCTCAGTGCCGTTTCTTCTCTTTCGCTTTTTTTGCTTTTGAGCATGCTGACGCATTCGGTTGAC [anti-EGFR DNA aptamer on positively charged MSN (MSN-AP)] | – | 26.6
